# Reference: the RNAGym collection of RNA variant scans (doi:10.1073/pnas.2313332121)
# B1: TPR t1 (parent)
# chain: GACCAAUCUGCCCUCAGAGCUCGAGAACAUCUUCGGAUGCAGAGGAGGCAGGCUUCGGUGGCGCGAUAGCGCCAACGUCCUCAACCUCCAAUGCAUCCCACCACAUGAUGAUGCCUGAAGAGCCUUGGUUUUUUG
# Variants of: B1
# Assay: polymerase ribozyme fitness, log enrichment relative to wild type (log ratio); higher = more active; in vitro selection for triplet polymerase activity
# How it was run: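 Libraries of mutants in each subunit of a heterodimeric triplet polymerase ribozyme were generated by PCR and transcribed. In triplicate, each went through one in vitro selection round: annealing with biotinylated primer, partner subunit and triplets; frozen incubation at −7 °C; gel excision of extended constructs; streptavidin-bead capture; RT-PCR. Fitness, taken from Illumina sequencing of input and output libraries, is the logarithm of a genotype's enrichment over wild-type enrichment, averaged across replicates with inverse-variance weights. The logarithm is base 2, and genotypes needed ≥10 input reads and ≥1 read per output to be kept.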
row,Variant,polymerase ribozyme fitness (log ratio)
1,GUCCAAUCUGCCCUCAGAGCUCGAGAACAUCUUCGGAUGCAGAGGAGGCAGGCUUAGGUGGCUCGAUAGCGCCAACGUCCUCAACCUCCAAUGCAUCCCACCACAAGAUGAUGCGUGAAGAGCCUUGGUUUUUUG [A2U C56A G63U U106A C115G],-6.59
2,GUCCAAUCUGCCUUCAGAGCUCGAGAACAUCUUCGGAUGCAGAGGAGGCAGGCUUCGGUGGCGCGAUAGCGCCAACGUCCUCAACCUCCAAUGCAUCCCACCACAUGAUGAUGCCUGAAGAGCCUUGGUUUUUUG [A2U C13U],-1.36
3,GUCCAAUCUGCCCUCAGAACUCGAGAACAUCUUCGGAUGCAGAGGAGGCAGGCUUCGGUGGCGCGAUAGCGCCAACGUCCUCAACCUCCAAUGCAUCCCACCACAUGAUGAUGCCUGAAGAGCCUUGGUUUUUUG [A2U G19A],-4.15
4,GUCCAAUCUGCCCUAAGAGCUCGAGAACAUCUUCGGAUGCAGAGGAGGCAGGCUUCGGUGGCGCGAUAGCGCCAACGUCCUCAACCUCCAAUGCAUCCCACCACAUGAUGAUGUCUGAAGAGCCUUGGUUUUUUG [A2U C15A C114U],-6.05
5,GUCCAAUCUGCCCUCAGAGCUCGAGAACAUCUUCGGAUGCAGAGGAGGCAGGCUUCGGUGGCGUGAUAGCGCCAACGUCCUCAACCUCCAAUGCAUCCCACCACAUGAUGAUGCCUGAAGAGCCUUGGUUUUUUG [A2U C64U],-2
6,GUCCAAUCUGCCUUCAGAGCUCGAGAACAUCUUCGGAUGCAGAGGAGGCGGGCUUCGGUGGCGCGAUAGCGCCAACGUCCUCAACCUCCAAUGCAUCCCACCACAUGAUGACGCCUGAAGAGCCUUGGUUUUUUG [A2U C13U A50G U112C],0.516
7,GUCCAAUCUGCCCUCAGAGCUCGAGAACAUCUUCGGAUGCAGAGGAGGCAGGCUUCGGUGGCGCGAUAGUGCCAACGUCCUCAACCUCCAAUGCAUCCCACCACAUGAUGAUGCCUGAAGAGCCUUGGUUUUUUG [A2U C70U],-2.28
8,GUCCAAUCUGCCCUCAGAGCUCGAGAACAUCUUCGGAUGCAGAGGAGGCAGGCUUUGGUGGCGCGAUAGCGCCAACGUCCUCAACCUCCAAUGCAUCCCACCACAUGAUGAUGCCUGAAGAGCCUUGGUUUUUUG [A2U C56U],-2.27
9,GUCCAAUCUUCCCUCAGAGCUCGAGAACAUCUUCGGAUGCAGAGAAGACAGGCUUCGGUGGCGCGAUAGCGCCAACGUCCUCAACCUCCAAUGCAUCCCACUACAUGAUGAUGUCUGAACAGUCUUGGUUUUUUG [A2U G10U G45A G48A C102U C114U G120C C123U],-4.53
10,GUCCAAUCUUCCCUCAGAGCUCGAGAACAUCUUCGGAUGCAAAGGAGGCAGGCUUCGGUGGCGCGAUAGCGCCAACGUCCUCAACCUUGAAGGCAUCCCACCACAUGAUGAUGCGUGAAGAGCCUUGGUUUUUUG [A2U G10U G42A C88U C89G U92G C115G],-6.18
11,GUCCAAUCUGCCCUCAGAGAUCGAGAACAUCUUCGGAUGCAGAGGAGGCAGGCUUCGGUGGCGCGAUAUGGCCAACGUCCUCAACCUCCAAUGCAUCCCACCACAUGAUGAUGCCUGAAGAGCCUUGGUUUUUUG [A2U C20A G69U C70G],-5.15
12,GUCCAAUCUGCCCUCAGAGCUCGAGAACAUCUUCGGAUGCAGAGGAGGCAGGGUUUGGUGGCGCGAUAUCGCCAACGUCCUCAACCUCCAAUGCAUCCCACCACAUGAUGAUGCCUGAAGAGCCUUGGUUUUUUG [A2U C53G C56U G69U],-1.92
13,GUCCAAUCUGCCCUCAGAGCUCGAGAACAUCUUCGGAUGCAGAGGAGGCAGGCUUCGGUGGCGCGAUAGCGCAAACGACCUCAACCCCCAAUGCAUCCCACCACAUGAUGAUGCCUGAAGAGCAUAGGUUUUUUG [A2U C73A U78A U87C C124A U126A],-1.46
14,GUCCAAUCUGCUCUCAGAGCUCGAGAACAUCUUCGGAUGCAGAGGAGGCAGGCUUCGGUGGCGUGAUAGCGCCAACGUCCUCAACCUCCAAUGCAUCCCACCACAUGAUGAUGCCUGAAGAGCCUUGGUUUUUUG [A2U C12U C64U],-2.54
15,GUCCAAUCUGCCCUCAGAGCUCGAGAACAUCUUCGGAUGCAGAGGAGGCAGGCUUCGGUGGCGCGAUAGCGCCAACGUCCUCAACCUCCAAUGCAUCCCAUCACAUGAUGAUGCCUGAAGAGCCUUGGUUUUUUG [A2U C101U],-1.78
16,GUCCAAUCUACCCUCAGAGCUCGAGAACAUCUUCGGAUGCAGAGGAGGCAGGCUUCGGUGGCGCGAUAGCGCCAACGUCCUCAACCUCCAAUGCAUCCCACCACAUGAUGAUGCCUGAAGAGCCUUGGUUUUUUG [A2U G10A],-2.85
17,GUCCAAUCUGCGCUCAGAGCUCGAGAACAUCUUCGGAUGCAGAGGAGGCAGGCUUCGGUGGCACGAUAGCGCCAACGUCCUCAACCUCCAAUGCAUCCCACCACAUGAUGAUGCCUGAAGAGCCUUGGUUUUUUG [A2U C12G G63A],-3.14
18,GUCCAAUCUUCCCUCAGAGCUCGAGAACAUCUUCGGAUGCAGAGGAGGCAGGCUUCGGUGGCGCGAUAGCGCCAACGUCCUCAACCUCCAAUGCAUCCCACCACAUGAUGAUGCUUGAAGAGCCUUGGUUUUUUG [A2U G10U C115U],-3.43
19,GUCCAAUCUCCCCUCAGAGCUCGAGAACAUCUUCGGAUGCAGAGGAGGCAGGCUUCGGUGGCGCGAUAGCUCCAACGUCCUCAACCUCCAAUGCAUCCCACCACAUGAUGAUGCCUGAAGCGCCUUGGUUUUUUG [A2U G10C G71U A121C],-1.06
20,GUCCAAUCUGCCCUCAGAGCUCGAGAACAUCUUCGGAUGCAGAGGAGGCAGGCUUCGGUGGCGCGAUAGCGCAAACGUCCUCAACCUCCAAUGCAUCCCACCACAUGAUGAUGCCUGAACAGCCUUGGUUUUUUG [A2U C73A G120C],-2.28
21,GUCCAAUCUGCCCUCAGAGCUCGAGAACAUCUUCGGAUGCAGAGGAGGCAGGCUUAGGUGGCGCGAUAGCGCCAACGUCCUCGACCUCCAAUGCAUCCCACCACAUGAUGAUGCCUGAAGAGCCUUGGUUUUUUG [A2U C56A A83G],-4.24
